Data published in paper PMC12682024.

Target: dopamine 2 receptor (D2R) with SmBiT tag (UniProt P14416)
Assay: split reporter (BiFC, NanoBiT); NanoBiT in cells: SmBiT on D2R, LgBiT on Gβ; stimulation with dopamine; Gαo-free control = 0% interaction, WT Gαo = 100% interaction

Chain of UniProt P14416 (P14416 whole entry): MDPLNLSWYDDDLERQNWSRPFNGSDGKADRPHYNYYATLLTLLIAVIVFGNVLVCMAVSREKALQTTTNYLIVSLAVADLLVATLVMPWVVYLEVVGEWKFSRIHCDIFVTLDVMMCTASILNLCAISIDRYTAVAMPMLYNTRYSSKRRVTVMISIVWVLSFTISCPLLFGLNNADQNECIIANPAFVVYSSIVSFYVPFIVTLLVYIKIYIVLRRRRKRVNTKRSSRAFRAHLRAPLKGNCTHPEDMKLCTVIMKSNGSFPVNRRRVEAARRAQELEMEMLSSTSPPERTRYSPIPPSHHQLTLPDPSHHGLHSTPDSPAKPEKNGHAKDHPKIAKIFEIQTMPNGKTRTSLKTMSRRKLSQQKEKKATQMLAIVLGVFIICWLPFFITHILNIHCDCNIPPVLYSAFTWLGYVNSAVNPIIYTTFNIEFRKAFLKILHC

With “G protein heterotrimer of N76K Gαo with LgBiT-tagged Gβ and Gγ (from UniProt P09471 1-354; P62873 1-340; P59768 1-71) (complex)” the fold change of receptor-Gβγ interaction against WT Gαo was 4 fold.
